Measurements reported in article PMC4434323.

Columns and labels:
[1] = target: klf-3 (F54H5.4) (Caenorhabditis elegans) (UniProt Q65ZG6)
[2] = target: T1, lsl-1 (F52F12.4) (Caenorhabditis elegans) (UniProt O02273)
T1 sequence: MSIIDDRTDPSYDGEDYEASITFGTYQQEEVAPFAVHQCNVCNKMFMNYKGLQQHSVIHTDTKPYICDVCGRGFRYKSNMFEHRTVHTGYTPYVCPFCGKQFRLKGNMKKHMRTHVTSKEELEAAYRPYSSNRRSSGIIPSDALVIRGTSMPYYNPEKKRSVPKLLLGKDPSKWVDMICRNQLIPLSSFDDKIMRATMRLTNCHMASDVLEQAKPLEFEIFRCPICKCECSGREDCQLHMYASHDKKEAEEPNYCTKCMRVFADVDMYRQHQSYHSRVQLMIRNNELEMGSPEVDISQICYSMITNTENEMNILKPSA

[3] = target: T2, F52B5.7 (F52B5.7) (Caenorhabditis elegans) (UniProt Q7YWZ7)
T2 sequence: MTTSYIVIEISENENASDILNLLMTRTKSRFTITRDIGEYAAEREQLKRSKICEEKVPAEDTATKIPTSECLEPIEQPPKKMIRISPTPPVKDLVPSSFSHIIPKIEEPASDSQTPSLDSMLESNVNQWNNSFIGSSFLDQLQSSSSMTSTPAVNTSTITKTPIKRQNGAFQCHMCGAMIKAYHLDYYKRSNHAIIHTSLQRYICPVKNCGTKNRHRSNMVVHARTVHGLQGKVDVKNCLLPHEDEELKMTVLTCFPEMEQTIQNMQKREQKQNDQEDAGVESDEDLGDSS

[4] = system: T3, ztf-14 (M163.2) (Caenorhabditis elegans)
T3 sequence: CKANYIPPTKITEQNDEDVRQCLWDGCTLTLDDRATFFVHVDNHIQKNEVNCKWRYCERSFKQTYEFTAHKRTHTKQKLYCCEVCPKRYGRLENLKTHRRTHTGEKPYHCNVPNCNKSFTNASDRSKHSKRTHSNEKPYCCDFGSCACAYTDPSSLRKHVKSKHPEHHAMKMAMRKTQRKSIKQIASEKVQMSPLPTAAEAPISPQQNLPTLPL

[5] = system: T4, syd-9 (ZK867.1) (Caenorhabditis elegans)
T4 sequence: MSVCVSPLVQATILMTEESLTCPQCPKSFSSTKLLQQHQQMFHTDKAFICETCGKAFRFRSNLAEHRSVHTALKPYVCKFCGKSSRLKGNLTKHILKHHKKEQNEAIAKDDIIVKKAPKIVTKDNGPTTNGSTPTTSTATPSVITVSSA

[6] = target: T5, che-1 (C55B7.12) (Caenorhabditis elegans) (UniProt Q966L8)
T5 sequence: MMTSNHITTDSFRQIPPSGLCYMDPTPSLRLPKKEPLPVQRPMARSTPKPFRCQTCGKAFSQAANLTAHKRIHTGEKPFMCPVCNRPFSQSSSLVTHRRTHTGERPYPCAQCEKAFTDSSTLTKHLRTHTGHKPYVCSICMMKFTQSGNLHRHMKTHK

[7] = target: T6, lsy-27 (F47H4.1) (Caenorhabditis elegans) (UniProt O45526)
T6 sequence: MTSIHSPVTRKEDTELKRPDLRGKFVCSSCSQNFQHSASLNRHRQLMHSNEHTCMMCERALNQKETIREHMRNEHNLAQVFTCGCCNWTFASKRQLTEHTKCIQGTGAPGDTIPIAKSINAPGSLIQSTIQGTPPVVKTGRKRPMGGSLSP

[8] = target: T7, ham-2 (C07A12.1) (Caenorhabditis elegans) (UniProt H2KYH4)
T7 sequence: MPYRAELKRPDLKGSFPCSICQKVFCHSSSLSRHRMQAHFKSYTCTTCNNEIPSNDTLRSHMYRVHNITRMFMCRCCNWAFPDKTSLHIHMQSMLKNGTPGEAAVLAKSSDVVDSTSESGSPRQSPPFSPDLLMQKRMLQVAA

[9] = target: T8, ztf-29 (Y66D12A.12) (Caenorhabditis elegans) (UniProt Q95Q03)
T8 sequence: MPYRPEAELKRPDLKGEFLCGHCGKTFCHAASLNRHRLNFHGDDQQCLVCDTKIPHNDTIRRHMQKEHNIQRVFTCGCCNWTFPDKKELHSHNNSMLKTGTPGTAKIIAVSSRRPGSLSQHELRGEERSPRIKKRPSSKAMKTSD

Sequence of klf-3 (F54H5.4) (Caenorhabditis elegans) (Q65ZG6 180-315): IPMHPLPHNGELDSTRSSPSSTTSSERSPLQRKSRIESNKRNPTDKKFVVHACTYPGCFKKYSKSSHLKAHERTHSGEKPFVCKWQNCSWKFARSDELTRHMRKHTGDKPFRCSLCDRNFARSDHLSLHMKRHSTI

How did the binding signal (PBM E-score (-0.5 to 0.5)) [1] turn out when “CCACACCC (double strand) [8-mer CCACACCC]” was run?
The binding signal (PBM E-score (-0.5 to 0.5)) was 0.486.

For “ATACCGTA (double strand) [8-mer ATACCGTA]”, which binding signal (PBM E-score (-0.5 to 0.5)) [2] is on record?
The binding signal (PBM E-score (-0.5 to 0.5)) was 0.492.

How did the binding signal (PBM E-score (-0.5 to 0.5)) [3] turn out when “CCCCATGA (double strand) [8-mer CCCCATGA]” was run?
Its binding signal (PBM E-score (-0.5 to 0.5)) is 0.495.

For “CCCCATAG (double strand) [8-mer CCCCATAG]”, which binding signal (PBM E-score (-0.5 to 0.5)) [3] is on record?
The binding signal (PBM E-score (-0.5 to 0.5)) was 0.492.

Which binding signal (PBM E-score (-0.5 to 0.5)) [4] does the source give for “GACCACCC (double strand) [8-mer GACCACCC]” here?
The binding signal (PBM E-score (-0.5 to 0.5)) was 0.499.

Which binding signal (PBM E-score (-0.5 to 0.5)) [1] does the source give for “CCCCGCCC (double strand) [8-mer CCCCGCCC]” here?
Its binding signal (PBM E-score (-0.5 to 0.5)) is 0.489.

Which binding signal (PBM E-score (-0.5 to 0.5)) [3] does the source give for “GCCCCATA (double strand) [8-mer GCCCCATA]” here?
Its binding signal (PBM E-score (-0.5 to 0.5)) is 0.487.

“TACCGTAA (double strand) [8-mer TACCGTAA]” was tested. Which binding signal (PBM E-score (-0.5 to 0.5)) [2] did it give?
The binding signal (PBM E-score (-0.5 to 0.5)) was 0.493.

Which binding signal (PBM E-score (-0.5 to 0.5)) [1] does the source give for “AGGGCGTG (double strand) [8-mer AGGGCGTG]” here?
Its binding signal (PBM E-score (-0.5 to 0.5)) is 0.491.

“CTACGCCC (double strand) [8-mer CTACGCCC]” was tested. Which binding signal (PBM E-score (-0.5 to 0.5)) [1] did it give?
The binding signal (PBM E-score (-0.5 to 0.5)) was 0.48.

With “AGGTGGTC (double strand) [8-mer AGGTGGTC]” as the sequence, how does the binding signal (PBM E-score (-0.5 to 0.5)) [4] read?
Its binding signal (PBM E-score (-0.5 to 0.5)) is 0.475.

For “CCCATGGG (double strand) [8-mer CCCATGGG]”, which binding signal (PBM E-score (-0.5 to 0.5)) [3] is on record?
Its binding signal (PBM E-score (-0.5 to 0.5)) is 0.485.

Which results are given for “TACAGTAA (double strand) [8-mer TACAGTAA]”?
binding signal (PBM E-score (-0.5 to 0.5)) [5]: 0.494; binding signal (PBM E-score (-0.5 to 0.5)) [2]: 0.495

Which binding signal (PBM E-score (-0.5 to 0.5)) [3] does the source give for “ATGGGGTA (double strand) [8-mer ATGGGGTA]” here?
Its binding signal (PBM E-score (-0.5 to 0.5)) is 0.488.

For “GTACCATA (double strand) [8-mer GTACCATA]”, which binding signal (PBM E-score (-0.5 to 0.5)) [3] is on record?
Its binding signal (PBM E-score (-0.5 to 0.5)) is 0.487.

How did the binding signal (PBM E-score (-0.5 to 0.5)) [2] turn out when “ATACGGTA (double strand) [8-mer ATACGGTA]” was run?
Its binding signal (PBM E-score (-0.5 to 0.5)) is 0.495.

For “ATGGATAC (double strand) [8-mer ATGGATAC]”, which binding signal (PBM E-score (-0.5 to 0.5)) [3] is on record?
Its binding signal (PBM E-score (-0.5 to 0.5)) is 0.485.

How did the binding signal (PBM E-score (-0.5 to 0.5)) [6] turn out when “GGCTTCAC (double strand) [8-mer GGCTTCAC]” was run?
The binding signal (PBM E-score (-0.5 to 0.5)) was 0.492.

What about the binding signal (PBM E-score (-0.5 to 0.5)) [7] of the same sequence?
The binding signal (PBM E-score (-0.5 to 0.5)) was 0.49.

“TACCCATA (double strand) [8-mer TACCCATA]” was tested. Which binding signal (PBM E-score (-0.5 to 0.5)) [3] did it give?
The binding signal (PBM E-score (-0.5 to 0.5)) was 0.485.

For “CTACAGTA (double strand) [8-mer CTACAGTA]”, which binding signal (PBM E-score (-0.5 to 0.5)) [5] is on record?
Its binding signal (PBM E-score (-0.5 to 0.5)) is 0.49.

And the binding signal (PBM E-score (-0.5 to 0.5)) [2]?
The binding signal (PBM E-score (-0.5 to 0.5)) was 0.498.

“AAGGGCGT (double strand) [8-mer AAGGGCGT]” was tested. Which binding signal (PBM E-score (-0.5 to 0.5)) [1] did it give?
The binding signal (PBM E-score (-0.5 to 0.5)) was 0.487.

With “ACCCCATG (double strand) [8-mer ACCCCATG]” as the sequence, how does the binding signal (PBM E-score (-0.5 to 0.5)) [3] read?
The binding signal (PBM E-score (-0.5 to 0.5)) was 0.486.

With “CCACGCCC (double strand) [8-mer CCACGCCC]” as the sequence, how does the binding signal (PBM E-score (-0.5 to 0.5)) [1] read?
The binding signal (PBM E-score (-0.5 to 0.5)) was 0.494.

What does the source list for “ATACAGTA (double strand) [8-mer ATACAGTA]”?
binding signal (PBM E-score (-0.5 to 0.5)) [5]: 0.492; binding signal (PBM E-score (-0.5 to 0.5)) [2]: 0.491

How did the binding signal (PBM E-score (-0.5 to 0.5)) [4] turn out when “AGGGTAAA (double strand) [8-mer AGGGTAAA]” was run?
The binding signal (PBM E-score (-0.5 to 0.5)) was 0.46.

For “AAAGCTTT (double strand) [8-mer AAAGCTTT]”, which binding signal (PBM E-score (-0.5 to 0.5)) [8] is on record?
Its binding signal (PBM E-score (-0.5 to 0.5)) is 0.478.

And the binding signal (PBM E-score (-0.5 to 0.5)) [7]?
Its binding signal (PBM E-score (-0.5 to 0.5)) is 0.491.

What about the binding signal (PBM E-score (-0.5 to 0.5)) [9] of the same sequence?
The binding signal (PBM E-score (-0.5 to 0.5)) was 0.496.

How did the binding signal (PBM E-score (-0.5 to 0.5)) [4] turn out when “ACCACCCA (double strand) [8-mer ACCACCCA]” was run?
The binding signal (PBM E-score (-0.5 to 0.5)) was 0.469.

With “ATACTGTA (double strand) [8-mer ATACTGTA]” as the sequence, how does the binding signal (PBM E-score (-0.5 to 0.5)) [5] read?
Its binding signal (PBM E-score (-0.5 to 0.5)) is 0.493.

What about the binding signal (PBM E-score (-0.5 to 0.5)) [2] of the same sequence?
Its binding signal (PBM E-score (-0.5 to 0.5)) is 0.494.

What does the source list for “GTACTGTA (double strand) [8-mer GTACTGTA]”?
binding signal (PBM E-score (-0.5 to 0.5)) [5]: 0.496; binding signal (PBM E-score (-0.5 to 0.5)) [2]: 0.497

“CTACGGTA (double strand) [8-mer CTACGGTA]” was tested. Which binding signal (PBM E-score (-0.5 to 0.5)) [2] did it give?
The binding signal (PBM E-score (-0.5 to 0.5)) was 0.491.

For “GCTTAAGC (double strand) [8-mer GCTTAAGC]”, which binding signal (PBM E-score (-0.5 to 0.5)) [8] is on record?
Its binding signal (PBM E-score (-0.5 to 0.5)) is 0.493.

And the binding signal (PBM E-score (-0.5 to 0.5)) [7]?
Its binding signal (PBM E-score (-0.5 to 0.5)) is 0.494.

What about the binding signal (PBM E-score (-0.5 to 0.5)) [9] of the same sequence?
Its binding signal (PBM E-score (-0.5 to 0.5)) is 0.491.

Which binding signal (PBM E-score (-0.5 to 0.5)) [1] does the source give for “CCCGCCCA (double strand) [8-mer CCCGCCCA]” here?
Its binding signal (PBM E-score (-0.5 to 0.5)) is 0.485.
